The values that follow come from patent US5405946A, “Recombinant protein S variants deficient in C4BP binding activity, compositions and therapeutic methods” (The Scripps Research Institute, priority 1992, dated 1995).

Changes are numbered by the printed parent chain. In names and notes the source's numbering stands. Entries after “also recorded” stand apart in the source; their conditions may differ.

One data set addresses T1, C4BP (Homo sapiens, UniProt P20851).
T1 sequence (P20851 18-252): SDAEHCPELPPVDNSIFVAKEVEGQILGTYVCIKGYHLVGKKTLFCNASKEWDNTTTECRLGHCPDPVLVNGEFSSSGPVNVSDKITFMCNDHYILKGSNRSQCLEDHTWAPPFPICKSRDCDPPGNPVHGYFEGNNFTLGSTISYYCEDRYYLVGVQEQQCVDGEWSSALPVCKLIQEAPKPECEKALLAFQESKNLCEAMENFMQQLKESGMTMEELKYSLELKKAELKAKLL
T1 sequence (P04003 49-597 partner): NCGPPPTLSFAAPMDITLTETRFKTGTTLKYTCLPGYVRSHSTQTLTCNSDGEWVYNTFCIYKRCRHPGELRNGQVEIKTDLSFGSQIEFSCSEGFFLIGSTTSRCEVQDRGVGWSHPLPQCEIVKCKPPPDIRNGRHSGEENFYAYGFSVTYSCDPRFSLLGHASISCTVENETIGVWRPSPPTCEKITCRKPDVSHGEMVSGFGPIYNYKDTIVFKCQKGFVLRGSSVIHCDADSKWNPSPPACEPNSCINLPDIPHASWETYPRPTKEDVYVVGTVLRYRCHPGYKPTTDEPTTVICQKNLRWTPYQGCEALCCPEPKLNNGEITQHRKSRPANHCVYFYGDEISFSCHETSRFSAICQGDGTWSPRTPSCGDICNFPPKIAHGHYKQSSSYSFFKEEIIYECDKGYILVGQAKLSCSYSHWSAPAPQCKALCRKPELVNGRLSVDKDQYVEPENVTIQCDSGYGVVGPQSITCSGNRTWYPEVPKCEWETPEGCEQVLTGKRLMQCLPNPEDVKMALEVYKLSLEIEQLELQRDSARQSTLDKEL
The following applies: PS association with C4BP in plasma; read-out: dissociation constant; cited from earlier work.

Data set [1] concerns the target activated protein C (APC) (Homo sapiens, UniProt P04070). The experiment in a line: Activated partial thromboplastin time clotting assay, APC cofactor activity in PS- and C4BP-depleted plasma. It is filed as biochemical. The procedure:
(§1) An activated partial thromboplastin time clotting assay, using PS- and C4BP-depleted plasma, cephalin-kaolin reagent (Boehringer Mannhein, Indianapolis, Ind.), activated protein C (APC) and increasing amounts of recombinant PS variants was performed as described by Chang et al., Thromb. Haemost., 67:526-532 (1992). Briefly, to 50 ul PS and C4BP-depleted plasma (prepared as described by Koedam et al., J. Clin. Invest., 82:1236-1243 (1988)) was added 50 ul cephalin-kaolin reagent, 25 ul APC (Koedam et al., ibid) at 5 ug/ml and 15 to 45 ul recombinant PS variants (0-4 ug/ml) diluted in Michaelis buffer (28.5 mM sodium acetate, 28.5 mM sodium barbital and 116 mM NaCl, pH 7.35) and maintained for 3 minutes at 37C. Clotting was initiated by addition of 50 ul of 25 mM CaCl2 and the clotting time was measured in an Amelung-Coagulometer KC10.
(§2) The ability of the variants to serve as a cofactor for APC was tested in a clotting assay. The clotting assay was performed as described in Example 2D. To examine the effects of thrombin on recombinant PS variants APC cofactor activity, one ml of purified recombinant PS variants listed above and prepared in Example 1D (4-40 ug/ml) was maintained with 1/20 vol (50 ul) of thrombin-Sepharose for 1 hour at 37C. in 50 mM Tris-HCl pH 7.5 containing […]. Thrombin-Sepharose was removed by centrifugation. Supernatants containing the thrombin-treated PS were stored at -20C. until used.
(§3) The PS-dependent prolongation of the clotting time was measured in an activated partial thromboplastin time system using PS and C4BP depleted plasma, APC and cephalin-kaolin reagent as described in Example 2D. Increasing amounts of recombinant PS or the triple variant treated without or with thrombin were added. Clotting was initiated by the addition of CaCl2 and the clotting time was measured. The results are presented as the means of duplicate values.

Data set [2] concerns the target T2, human C4b-binding protein (C4BP) (Homo sapiens, UniProt P20851).
T2 sequence (P20851 18-252): T1 sequence (P20851 18-252)
T2 sequence (P04003 49-597 partner): T1 sequence (P04003 49-597 partner)
The data set can be described thus: ELISA of complex formation between recombinant PS variant proteins and C4BP. The following applies: C4BP 1 ug/ml, 18 hours room temperature. The method, then: The complex formation between the recombinant PS variant proteins and C4BP was measured with a sensitive ELISA using C4BP and a peroxidase conjugated anti-PS antibody as described by Chang et al., Thromb. Haemost., 67:526-532 (1992). Briefly, IgG at a concentration of 10 ug/ml from monoclonal antibody 8C11, which is directed against the alpha chain of C4BP (Hessing et al., J. Immunol., 144:204-208 (1990)), was coated in 50 mM NaHCO3 at pH 9.6 overnight at 4C. onto polyvinyl microtiter plates (Costar, Cambridge, Mass.). After washing to remove the unbound IgGs, the wells were blocked with 1% (w/v) BSA in 50 mM Tris-HCl at pH 7.5 containing 150 mM NaCl and 5 mM CaCl2 for 1 hour at room temperature. C4BP, prepared as described by Hessing et al., supra, was allowed to bind for 2 hours with a final concentration of 1 ug/ml. Increasing amounts of recombinant PS proteins (E424K, Q427E, K429E, […] and K432E) and wild-type recombinant PS prepared in Example 1 were then added in concentrations ranging from 0-150 ng/ml and maintained for 18 hours at room temperature. Bound proteins were allowed to bind to rabbit anti-human PS IgG conjugated to peroxidase (Dakopatts, Glostrup, Denmark) at a concentration of 0.3 ug/ml for 2 hours at room temperature. After washing the wells to remove the unbound proteins, 100 ul of 0.1M sodium phosphate/0.2M sodium citrate at pH 5.0 containing 0.04% 1,2-phenylenediamine dihydrochloride and 0.015% hydrogen peroxide was added. The hydrolysis of phenylenediamine was stopped by adding 50 ul 2N sulfuric acid. The absorbance was measured at 490 nm using a Vmax plate reader (Molecular Devices Corp., Menlo Park, Calif.). The data represented the mean of duplicate determinations.
The binding of the of the thrombin domain recombinant PS variants to C4BP was determined. The complex formation between the recombinant proteins and C4BP was measured with a sensitive ELISA using anti-C4BP monoclonal antibody 8C11 lgG, purified C4BP and peroxidase conjugated anti-PS antibody as described in Example 2A.
Anti-C4BP monoclonal antibody 8C11 IgG was coated onto microtiter wells to catch C4BP (1 ug/ml). Increasing amounts (0-100 ng/ml) of recombinant PS or variants (R49L, R60L, R70I, R49L/R60L, R60L/R70I, R49L/R70I and R49L/R60L/R70I) were added. Binding to C4BP was for 18 hours at room temperature. Bound PS variants were detected with anti-PS IgG conjugated to peroxidase (0.3 ug/ml). The results are the mean of duplicate values in two different experiments.
For orientation: ELISA stands for enzyme-linked immunosorbent assay.

The target of data set [3] is T3, thrombin (Homo sapiens, UniProt P00734).
T3 construct: maintained with 1/20 vol (50 ul) of thrombin-Sepharose for 1 hour at 37C
The experiment in a line: Reduced SDS-PAGE of PS variants with thrombin treatment. It is filed as biochemical. The note with it: reduced SDS gels. The procedure:
The purity and integrity of the recombinant PS variants was established by SDS-PAGE on 12.5% gradient gels according to Laemmli, Nature, 227:680-685 (1970) using the Phast system (Pharmacia Biotechnology, Sweden). After electrophoresis, the proteins were stained with silver nitrate or transferred onto Immobilon membranes for subsequent detection by Western blot analysis using rabbit anti-PS IgG conjugated to peroxidase (3 ug/ml).
For the thrombin-sensitive PS variant proteins, on reduced SDS gels, purified recombinant PS and the single and double variants all migrated as a doublet. […] The upper band of the doublet for recombinant PS and the single and double variants all could be converted into the lower band by thrombin treatment.

The target of data set [4] is T3, thrombin. The experiment in a line: APC cofactor clotting assay after thrombin-Sepharose treatment of PS variants. In kind it is biochemical. The method, then: as §1, §2, §3
For data set [5], the system named is anti-PS monoclonal antibody LJ-56. The data set can be described thus: Sandwich assay of LJ-56 reactivity to recombinant PS variant proteins. In kind it is binding. The following applies: LJ-56 0-10 ug/ml. The method, then:
Reactivity of LJ-56 to the recombinant PS variant proteins gave essentially the same results when a sandwich detecting assay was performed. In the sandwich assay, a fixed amount of recombinant PS variants produced in Example 1B1) (50 ng for E424K and 100 ng for wild type, Q427E and K429E) were added to wells previously coated with rabbit anti-PS IgG at 10 ug/ml in coating buffer and treated to block nonspecific binding sites as described above. Following a maintenance period for 18 hours at room temperature, the wells were washed with TBS and 100 ul of serial dilutions of anti-PS monoclonal antibody LJ-56 (0-10 ug/ml) was added and maintained for 2 hours at room temperature. Detection of the immunoreactant products was accomplished with rabbit anti-mouse IgG conjugated to peroxidase (1:1000). The hydrolysis of […] was measure at 490 nm using a Vmax plate reader as described in Example 2A.

Sequence of activated protein C (APC) (P04070 212-461 limits assumed): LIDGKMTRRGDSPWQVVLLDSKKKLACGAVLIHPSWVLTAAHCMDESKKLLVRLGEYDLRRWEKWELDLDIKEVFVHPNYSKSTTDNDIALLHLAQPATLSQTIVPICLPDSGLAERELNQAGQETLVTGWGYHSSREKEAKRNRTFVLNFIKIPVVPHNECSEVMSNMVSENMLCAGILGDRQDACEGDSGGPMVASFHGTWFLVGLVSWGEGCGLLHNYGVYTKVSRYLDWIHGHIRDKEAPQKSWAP
Sequence of activated protein C (APC) (P04070 43-197 limits assumed): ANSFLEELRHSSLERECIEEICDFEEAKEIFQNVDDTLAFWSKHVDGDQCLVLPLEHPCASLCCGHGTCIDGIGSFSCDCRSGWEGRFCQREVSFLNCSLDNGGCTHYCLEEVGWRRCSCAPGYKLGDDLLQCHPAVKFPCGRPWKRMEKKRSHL

Turning to “PS: vitamin K-dependent protein of 75,000 molecular weight with 635 amino acid residues”, the Kd with C4BP is 1 to 5 nM.

B1: R49L/R60L/R70I variant: recombinant protein S triple variant, arginines 49, 60 and 70 replaced by leucine or isoleucine (protein)
chain: ANSLLEETKQGNLERECIEELCNKEEAREVFENDPETDYFYPKYLVCLLSFQTGLFTAALQSTNAYPDLISCVNAIPDQCSPLPCNEDGYMSCKDGKASFTCTCKPGWQGEKCEFDINECKDPSNINGGCSQICDNTPGSYHCSCKNGFVMLSNKKDCKDVDECSLKPSICGTAVCKNIPGDFECECPEGYRYNLKSKSCEDIDECSENMCAQLCVNYPGGYTCYCDGKKGFKLAQDQKSCEVVSVCLPLNLDTKYELLYLAEQFAGVVLYLKFRLPEISRFSAEFDFRTYDSEGVILYAESIDHSAWLLIALRGGKIEVQLKNEHTSKITTGGDVINNGLWNMVSVEELEHSISIKIAKEAVMDINKPGPLFKPENGLLETKVYFAGFPRKVESELIKPINPRLDGCIRSWNLMKQGASGIKEIIQEKQNKHCLVTVEKGSYYPGSGIAQFHIDYNNVSSAEGWHVNVTLNIRPSTGTGVMLALVSGNNTVPFAVSLVDSTSEKSQDILLSVENTVIYRIQALSLCSDQQSHLEFRVNRNNLELSTPLKIETISHEDLQRQLAVLDKAMKAKVATYLGGLPDVPFSATPVNAFYNGCMEVNINGVQLDLDEAISKHNDIRAHSCPSVWKKTKNS
With B1, the “Clotting Time” value in data set [1] (concentration 1.19 ug/ml, without protein S 72 ± 2 seconds) worked out at 84 s. In data set [1] (not treated with thrombin), the APC cofactor activity result is reported as “higher APC cofactor activity (as defined by prolongation of the clotting time) than recombinant PS; also recorded: retained full APC cofactor activity”. Moreover, the “binding to C4BP” value in data set [2] (thrombin domain variants, 0-100 ng/ml, in the presence of calcium) is “unaltered affinity for binding to C4BP”. Besides, the “conversion of upper band into lower band by thrombin” value with thrombin [3] is reported as “not converted into a lower band, indicating that this triple variant was resistant to thrombin”. Besides, in the data set with thrombin [4] (after thrombin treatment, concentration 1.19 ug/ml, without protein S 72 ± 2 seconds), the “Clotting Time After Treatment” value was 85 s. Moreover, in the data set with thrombin [4] (thrombin-Sepharose 1 hour at 37C), the “APC cofactor activity after treatment with thrombin” value is recorded as “retained its APC cofactor activity; also recorded: remained unchanged; also recorded: completely resistant to inactivation by thrombin”.

B2: K429E variant: recombinant human protein S with glutamic acid in place of lysine at position 429 (protein)
chain: B1 chain with L49R, L60R, I70R, K429E
Regarding B2, in data set [1] (final conc. 1.8 ug/ml, basal clotting 80), the “Clotting Time” value was found to be 88 s. For the same molecule, the anticoagulant activity result in data set [1] (in comparison with the basal clotting time of 80 seconds) is “anticoagulant activity increased linearly with increasing volumes of variant PS”. In addition, the “clotting time at maximal inhibition of clotting” value in data set [1] (increasing amounts of variant) is listed as “approximately 95 seconds”. Further, in data set [2] (first disulfide loop variants, 0-150 ng/ml, calcium), the “binding to C4BP” value is recorded as “failed to bind to C4BP at concentrations up to 50 ng/ml”. Also, the “recognition by LJ-56” value in data set [5] is reported as “not recognized”.
